Earlier results, collected in article PMC6435036 (Molecular pharmaceutics, 2017).

Settings: in humans

Substance: ApoA-I: endogenous apolipoprotein A-I, main protein of HDL
- half-life of endogenous ApoA-I protein: 79.2 h
